Test results published in patent US20120114667A1 (AstraZeneca / MedImmune, published 2012).
Residue numbers refer to the chain shown, from its start.

B1: 9E2.3A8 (antibody, IgG4, V domains shown)
VH: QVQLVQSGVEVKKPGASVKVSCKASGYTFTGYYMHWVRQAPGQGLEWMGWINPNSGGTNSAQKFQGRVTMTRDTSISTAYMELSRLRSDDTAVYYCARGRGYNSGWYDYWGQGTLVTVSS
VL: DIVMTQSPDSLAVSLGERATINCKSSQSVLHNSHNENYLTWYQQKPGQPPKLLIYWASSRESGVPDRFSGSGSGTDFTLSISSLQADDVAVYYCQQYFSNPWTFGQGTKVEIK
B2: 8A6.1A3 (antibody, IgG4, V domains shown)
VH: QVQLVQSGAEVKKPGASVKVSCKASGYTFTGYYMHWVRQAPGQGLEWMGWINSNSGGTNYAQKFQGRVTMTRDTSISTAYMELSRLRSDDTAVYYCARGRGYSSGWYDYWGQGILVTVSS
VL: B1 VL with L30F, H31F, N32S, H34S, S59T, S80T, D87E, F98Y, S99N, N100I
B3: 7B2.3B10 (antibody, IgG4, V domains shown)
VH: QVQLVESGGGVVQPGRSLRLSCAASGFTFSSYGMHWVRQAPGKGLEWVAVIWYDGSYKYYADSVQGRFTISRDNSKNTLYLQMNSLRAEDTAVYYCARDKGGHYFDYWGQGTLVTVSS
VL: DIQMTQSPSSLSASVGDRVTITCRASQSISSYLNWYQQKPGKAPKLLIYAASSLQSGVPSRFSGSGSGTDFTLTISSLQPEDFATYYCQQNFSFPPEWTFGQGTKVEIK
B4: 2E10.1B9 (antibody, IgG2, V domains shown)
VH: RVQLQESGPGLVKPTQTLSLTCTVSGGSIISGGYFWTWIRQHPGKGLEWIGYIYYSGSTYYSPSLKSRVTISVDTSKNQFSLKLSSVTAADTAVYYCTRAVPAAKGYYSYYGMDVWGQGTTVTVSS
VL: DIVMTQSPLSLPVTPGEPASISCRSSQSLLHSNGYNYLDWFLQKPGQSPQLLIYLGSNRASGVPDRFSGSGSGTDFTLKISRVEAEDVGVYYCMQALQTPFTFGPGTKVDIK
B5: 2C5.2B12 (antibody, IgG2, V domains shown)
VH: B4 VH
VL: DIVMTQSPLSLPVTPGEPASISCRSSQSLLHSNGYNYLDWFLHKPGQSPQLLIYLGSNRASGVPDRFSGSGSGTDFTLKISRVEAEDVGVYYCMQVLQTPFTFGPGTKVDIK
B6: 3G11.1A6 (antibody, IgG2, V domains shown)
VH: B4 VH with G27S
VL: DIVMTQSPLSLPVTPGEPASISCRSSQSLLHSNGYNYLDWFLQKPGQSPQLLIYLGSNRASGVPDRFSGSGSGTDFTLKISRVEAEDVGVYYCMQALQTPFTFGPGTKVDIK
B7: 2A9.1A1 (antibody, IgG2, V domains shown)
VH: B4 VH
VL: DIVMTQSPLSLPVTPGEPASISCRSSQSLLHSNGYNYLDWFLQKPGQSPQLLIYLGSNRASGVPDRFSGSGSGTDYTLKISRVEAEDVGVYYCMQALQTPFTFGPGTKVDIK
B8: 3C2.2A8 (antibody, IgG2, V domains shown)
VH: B4 VH
VL: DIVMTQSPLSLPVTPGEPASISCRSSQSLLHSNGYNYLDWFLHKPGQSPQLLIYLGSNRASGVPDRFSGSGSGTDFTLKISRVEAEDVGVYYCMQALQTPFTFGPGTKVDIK
notes: also called mAb 3C2.2A8
B9: 2F5.1A4 (antibody, IgG2, V domains shown)
VH: QMQLVQSGAEVKKPGASVKVSCKASGYTFTGYYMHWVRQAPGQGLEWMGWINTNSGGTNCAQKFQVRVTMTRDTSISTAYMELSRLRSDDTAVYYCARGRGYSSGWYDYWGQGTLVTVSS
VL: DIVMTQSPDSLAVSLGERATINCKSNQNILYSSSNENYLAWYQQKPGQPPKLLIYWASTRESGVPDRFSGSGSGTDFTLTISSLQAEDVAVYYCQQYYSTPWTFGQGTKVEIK

target: T1, Macaque α5β1 (Macaque); assay: FACS on macaque PBMC, 1 mM Mn2+
T1 construct: whole, on cells; macaque species not specified; also called monkey α5β1; monkey integrin
Method: To determine whether the antibodies cross reacted to monkey integrin, binding to purified Macaque T-cells was assessed. Macaque PBMCs were previously purified from whole blood, and stored frozen. Macaque PBMCs were suspended in adhesion buffer with HBSS 1% BSA and 1 mM Mn2+ (“FACS buffer”), at a concentration of 4.8×10⁵ live cells per ml. 12.5 uL of the primary antibody was added to 37.5 ul of cells, and incubated at 4° C. for 1 hour. Positive and negative controls were included as indicated. 100 uL of FACs buffer is added to dilute out primary antibody, the cells washed and resuspended in the appropriate secondary at 2 ug/mL (50 uL) with 10 ug/mL 7AAD, and stained on ice for 7 minutes. 100 uL of FACs buffer was added and cells were washed twice in FACS buffer, finally the supernatant removed and the cells were resuspended in 100 uL of buffer.
Samples were read on HTS FACS machine and analyzed using Cell Quest Pro software. The data shown in Table 7 confirm that the antibodies cross react with monkey α5β1.

Geo Mean on Macaque T-cells IgG detection | Binder
12 | B1
11 | B2
12 | B3
12 | B4
11 | B5
13 | B6
12 | B7
10 | B8
13 | B9

target: T2, α4β1 integrin on J6.77 Jurkat cells (UniProt P13612 34-1032; P05556 21-798); assay: cell-based or functional assay
T2 sequence (P13612 34-1032, chain 1 of 2): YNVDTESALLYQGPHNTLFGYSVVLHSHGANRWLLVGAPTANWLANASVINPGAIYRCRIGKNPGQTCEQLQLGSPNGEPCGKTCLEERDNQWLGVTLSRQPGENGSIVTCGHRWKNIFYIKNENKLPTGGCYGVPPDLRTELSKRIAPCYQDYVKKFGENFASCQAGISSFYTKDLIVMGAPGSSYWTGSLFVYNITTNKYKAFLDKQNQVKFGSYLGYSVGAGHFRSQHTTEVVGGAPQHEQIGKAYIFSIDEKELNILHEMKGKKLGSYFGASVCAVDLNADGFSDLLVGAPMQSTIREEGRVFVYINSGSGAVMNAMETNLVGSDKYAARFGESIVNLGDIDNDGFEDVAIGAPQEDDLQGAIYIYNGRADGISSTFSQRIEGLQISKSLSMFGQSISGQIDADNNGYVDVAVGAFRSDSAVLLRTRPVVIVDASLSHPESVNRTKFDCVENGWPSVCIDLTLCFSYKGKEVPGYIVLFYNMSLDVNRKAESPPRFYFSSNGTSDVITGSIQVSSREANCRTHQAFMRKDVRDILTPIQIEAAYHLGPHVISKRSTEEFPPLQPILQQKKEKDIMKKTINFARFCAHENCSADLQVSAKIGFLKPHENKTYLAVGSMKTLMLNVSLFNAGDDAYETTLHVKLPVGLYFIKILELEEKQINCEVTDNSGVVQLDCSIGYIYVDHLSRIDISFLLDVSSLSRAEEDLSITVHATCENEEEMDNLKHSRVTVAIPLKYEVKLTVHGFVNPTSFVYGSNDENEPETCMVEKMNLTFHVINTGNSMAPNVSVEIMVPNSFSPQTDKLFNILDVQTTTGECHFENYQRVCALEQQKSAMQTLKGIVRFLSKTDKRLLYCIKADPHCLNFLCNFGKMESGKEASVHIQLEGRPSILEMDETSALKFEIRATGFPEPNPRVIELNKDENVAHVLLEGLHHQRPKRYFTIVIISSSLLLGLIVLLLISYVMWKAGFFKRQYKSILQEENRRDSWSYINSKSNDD
T2 sequence (P05556 21-798, chain 2 of 2): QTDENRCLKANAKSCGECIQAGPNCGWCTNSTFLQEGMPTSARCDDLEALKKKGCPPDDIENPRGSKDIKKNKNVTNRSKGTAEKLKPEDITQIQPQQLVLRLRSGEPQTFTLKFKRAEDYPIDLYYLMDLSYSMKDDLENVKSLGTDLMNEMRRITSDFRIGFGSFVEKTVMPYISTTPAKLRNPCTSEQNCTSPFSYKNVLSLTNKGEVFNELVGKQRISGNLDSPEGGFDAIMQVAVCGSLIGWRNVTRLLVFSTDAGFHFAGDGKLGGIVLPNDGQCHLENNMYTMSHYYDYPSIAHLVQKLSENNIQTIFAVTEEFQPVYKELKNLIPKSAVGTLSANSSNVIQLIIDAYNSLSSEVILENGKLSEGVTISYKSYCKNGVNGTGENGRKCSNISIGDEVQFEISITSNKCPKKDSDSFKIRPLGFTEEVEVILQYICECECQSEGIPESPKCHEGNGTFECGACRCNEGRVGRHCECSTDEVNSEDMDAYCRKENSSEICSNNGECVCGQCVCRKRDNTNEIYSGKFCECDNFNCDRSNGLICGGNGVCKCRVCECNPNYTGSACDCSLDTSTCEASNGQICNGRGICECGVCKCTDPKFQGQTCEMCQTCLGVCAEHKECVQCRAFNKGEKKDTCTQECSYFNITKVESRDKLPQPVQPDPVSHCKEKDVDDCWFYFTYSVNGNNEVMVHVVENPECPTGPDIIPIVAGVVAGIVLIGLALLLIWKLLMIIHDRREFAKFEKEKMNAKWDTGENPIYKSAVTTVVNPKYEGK

% Inhibition of adhesion CS1 n = 1 (J6.77 Jurkat on GST-CS-1) | % Inhibition of adhesion CS1 n = 2 (J6.77 Jurkat on GST-CS-1) | Binder
40% | 10% | B1
24% | 9% | B2
45% | 21% | B3
31% | -5% | B4
14% | -5% | B5
17% | 9% | B6
2% | 11% | B7
22% | 18% | B8
31% | -8% | B9

target: T3, human α5β1 integrin (human, UniProt P08648 42-1049; P05556 21-798); assay: cell-based or functional assay
T3 sequence (P08648 42-1049, chain 1 of 2): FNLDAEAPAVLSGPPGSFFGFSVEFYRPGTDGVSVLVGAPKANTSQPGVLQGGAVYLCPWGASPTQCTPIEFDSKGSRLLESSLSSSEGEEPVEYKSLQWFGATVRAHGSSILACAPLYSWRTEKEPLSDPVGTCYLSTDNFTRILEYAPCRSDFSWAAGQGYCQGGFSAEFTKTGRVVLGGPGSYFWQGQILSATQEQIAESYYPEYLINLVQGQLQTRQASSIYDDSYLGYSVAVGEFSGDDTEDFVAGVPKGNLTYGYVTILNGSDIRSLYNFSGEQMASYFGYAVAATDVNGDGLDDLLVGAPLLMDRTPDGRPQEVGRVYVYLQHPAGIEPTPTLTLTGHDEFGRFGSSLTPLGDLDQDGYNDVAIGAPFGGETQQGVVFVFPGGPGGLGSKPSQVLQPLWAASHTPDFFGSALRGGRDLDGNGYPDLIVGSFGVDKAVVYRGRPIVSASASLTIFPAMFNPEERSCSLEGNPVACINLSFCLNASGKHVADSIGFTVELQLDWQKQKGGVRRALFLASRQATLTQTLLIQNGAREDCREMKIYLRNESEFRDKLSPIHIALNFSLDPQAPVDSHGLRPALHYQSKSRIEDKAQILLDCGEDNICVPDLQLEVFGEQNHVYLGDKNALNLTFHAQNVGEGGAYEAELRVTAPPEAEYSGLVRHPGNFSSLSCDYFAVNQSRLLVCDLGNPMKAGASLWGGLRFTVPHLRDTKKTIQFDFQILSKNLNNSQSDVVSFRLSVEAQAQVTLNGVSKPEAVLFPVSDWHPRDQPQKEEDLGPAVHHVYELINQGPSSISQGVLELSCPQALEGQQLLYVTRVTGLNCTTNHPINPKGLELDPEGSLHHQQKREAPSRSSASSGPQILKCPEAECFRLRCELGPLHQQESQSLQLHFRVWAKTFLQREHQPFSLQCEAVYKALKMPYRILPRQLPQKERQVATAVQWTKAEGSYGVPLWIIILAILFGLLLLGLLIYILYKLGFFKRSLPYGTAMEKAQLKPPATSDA
T3 sequence (P05556 21-798, chain 2 of 2): as the sequence (P05556 21-798, chain 2 of 2) above

% Inhibition of cell adhesion n = 1 (K562 on full length FN) | % Inhibition of cell adhesion n = 2 (K562 on full length FN) | % Inhibition of cell adhesion n = 3 (K562 on GST-FNIII(9-10), no pre-incubation) | % Inhibition of cell adhesion n = 4 (K562 on GST-FNIII(9-10), supernatant 1 in 10) | % Inhibition of cell adhesion n = 5 (K562 on GST-FNIII(9-10), supernatant 1 in 10) | Binder
98% | 100% | 94% | 94% | 87% | B1
99% | 95% | 91% | 92% | 90% | B2
93% | 100% | 94% | 85% | 75% | B3
97% | 94% | 96% | 86% | 87% | B4
100% | 96% | 101% | 96% | 97% | B5
99% | 99% | 93% | 92% | 100% | B6
100% | 94% | 96% | 94% | 100% | B7
99% | 100% | 102% | 94% | 96% | B8
96% | 100% | 103% | 91% | 84% | B9

target: T4, β1 integrin chain on HT29 cells (α5 null line) (human, UniProt P05556 21-798); assay: FACS on HT29 cells (no α5, β1 present)
T4 construct: whole, on cells; β1 is paired with alpha chains other than α5 on these cells; also called β1 chain; beta1
T4 sequence (P05556 21-798): as the sequence (P05556 21-798, chain 2 of 2) above
Method: To confirm the antibodies bind to the α5 chain or to the α5β1 heterodimer, binding to Human colon adenocarcinoma grade II cells (HT29 cells) was assessed by FACS. […] HT-29 cells were suspended in HBSS with 1% BSA and 1 mM final MnCL₂ at a concentration of 6×10⁵ cells/ml.12.5 uL of the primary antibody was added to 37.5 ul of cells and the plate incubated on ice for 60 minutes. A range of negative controls were included as described previously (indicated as below). In addition as a positive control antibodies to αvβ6 (Mab2077, Chemicon), α5β1 (Mab1909, Chemicon) and av (L230, Chemicon) were included. 100 uL of HBSS buffer was added to dilute primary antibody, the cells pelleted by centrifuging at 1500 rpm for 3 minutes and resuspended in 50 ul Goat anti-human IgG Fc Cy5 or Goat anti Mouse IgG Fc Cy5 secondary at 2 ug/mL. They were then incubated on ice for a further 7 minutes, and 100 uL of HBSS buffer was added to dilute secondary antibody. Finally cells were pelleted by centrifuging at 1500 rpm for 3 minutes, HBSS Buffer/secondary supernatant removed, washed twice in 100 ul of FACS buffer was added and the cells were resuspended and then read on a FACS Calibur HTS. Samples were analyzed using Cell Quest Pro software. The data is represented in Table 6 and confirm that the antibodies are selective for α5β1.

Binding Geomean | binding result | Binder
2.86 | no binding | B1
2.99 | no binding | B2
3.1 | no binding | B3
3.11 | no binding | B4
3.6 | no binding | B5
3.02 | no binding | B6
4.73 | no binding | B7
3.29 | no binding | B8
2.94 | no binding | B9

target: T2, α4β1 integrin on J6.77 Jurkat cells; assay: cell-based or functional assay; remark: another data set of the same source

Average % inhibition at 5 ug/ml (J6 adhesion to GST-CS-1) | Binder
2% | B1
-23% | B2
-14% | B3
18% | B5
-2% | B6
-19% | B7
1% | B8
-12% | B9

target: T3, human α5β1 integrin; assay: cell-based or functional assay; remark: another data set of the same source

IC50 ng/mL (K562 adhesion to GST-FNIII(9-10)) | Binder
73.4 ng/mL | B1
52.2 ng/mL | B2
57 ng/mL | B3
11.9 ng/mL | B5
9 ng/mL | B6
14.1 ng/mL | B7
12.4 ng/mL | B8
97.8 ng/mL | B9
